Results from patent US10143747B2, “Breast cancer therapeutics” (IMBA—INSTITUT FÜR MOLEKULARE BIOTECHNOLOGIE GMBH, priority 2010, dated 2018).

B1: RANKL: recombinant RANKL protein, ligand of RANK, used as stimulus (1 μg/ml or 1 μg i.p.) (protein, UniProt O35235 139-316, looked up)
Tumor necrosis factor ligand …: FSGAPAMMEGSWLDVAQRGKPEAQPFAHLTINAASIPSGSHKVTLSSWYHDRGWAKISNMTLSNGKLRVNQDGFYYLYANICFRHHETSGSVPTDYLQLMVYVVKTSIKIPSSHNLMKGGSTKNWSGNSEFHFYSINVGGFFKLRAGEEISIQVSNPSLLDPDQDATYFGAFKVQDID

Legend:
mammary epithelial cells = assay: Epithelial proliferation in mammary glands by in situ Ki67 immunostaining; assay type: in vivo, mouse
Protocol: a,b, Induction of RANKL expression by the progesterone-derivative MPA. Nulliparous wild type females were s.c. implanted with slow-release MPA pellets or treated with surgery sham. a, RANKL mRNA was determined in purified mammary epithelial cells by qRT-PCR three days after implantation. Data are shown as fold change compared to sham treatment (+/−sem) (n=3). b, In situ […] immunostaining of progesterone receptor (PR, red) and RANKL (green) in mammary epithelial cells after 3d MPA treatment. c, Induction of soluble RANKL protein assayed on isolated mammary gland epithelial cells from control, but not in prolactin receptor mutant (PRL-R KO) females on day 3 after s.c. MPA implantation. Mammary glands from sham operated control litter-mates and PRL-R KO females are shown as controls. d, Epithelial proliferation in mammary glands of control littermates and RANK^Δmam females 3 days after sham treatment and MPA implantation. Proliferation was determined by in situ Ki67 immunostaining. e,f, Marked increase of the stem cell-enriched CD24^+CD49^high population (MaSC) in MPA-treated mammary glands in control but not in RANK^Δmam mammary glands. e, Representative FACS profiles showing CD24 and CD49 expression of lineage negative (CD31^− (endothelial cells) CD45^− (hematopoietic cells) […] (erythroid cells)) of mammary MaSCs from MPA- or sham-treated 8-week old virgin females. f, Quantification of MaSC-enriched CD24^+CD49^high population from mammary glands of MPA- or sham-treated virgin RANK^Δmam and littermate control females. For all MaSCs experiments mice were treated with MPA for 3 days. n=4 per group+/−sem. *P<0.05; ***P<0.001 (Student's t-test).
At least 1000 mammary gland epithelial cells were counted per mouse. n=3 mice per genotype. **P<0.005; ***P<0.001 (Student's t-test). b, Quantification of in situ Ki67 immunostained cells per acinus from mammary glands of control littermate and RANK^Δmam females on day 3 after MPA s.c. implantation. […] At least 1000 cells were counted per mammary gland. n=3 per genotype. In b, and c, data are shown as percentage of acini/ducts with low (<20% of epithelial cells are Ki67^+), medium (20-80% of epithelial cells are Ki67^+) and high (>80% of epithelial cells are Ki67^+) numbers of proliferating cells+/−sem. ***P<0.001; *P<0.03 (Student's t-test). d, Epithelial proliferation in mammary glands of control littermates and RANK^Δmam females 1 day after i.p. injection of PBS or RANKL (1 μg). Proliferation was determined in situ Ki67 immunostaining. Magnifications×40. e, Quantification of epithelial proliferation 1 day after i.p. injection of PBS or RANKL (1 μg). Mean percentages of Ki67 positive cells+/−sem are shown. *P<0.03; n=5 (Student's t-test).
For histological analysis, 5 μm sections were cut and stained with hematoxylin and eosin (H&E). Whole-mount staining of mammary glands was performed as described^8. For immunoperoxidase staining paraffin-embedded sections were […] and antigenic epitopes exposed using a 10 mM citrate buffer or microwaving. […] Histomorphometric indices (proliferation and apoptosis) were calculated as the number of positive epithelial cells divided by the total number of epithelial cells, with no fewer than 1000 nuclei for Ki67 stainings and no fewer than 5000 cells for active Caspase 3 staining counted per section. […]

[1] = test system: primary mouse mammary epithelial cells; assay: DNA damage responses (cell cycle arrest, apoptosis) in primary mouse mammary epithelial cells; assay type: cell-based; settings: RANKL 1 μg/ml
Protocol: (§1) a, Western Blot analysis for γH2AX, phosphorylated (P) Chk1, total Chk1, p53 and β-actin in isolated primary mouse mammary gland epithelial cells in response to γ-irradiation (2 Gray) in the presence (1 μg/ml) or absence of RANKL stimulation. b,c, FACS analysis of propidium iodide (PI) stained b, mammary epithelial cells and c, SKBR3 human breast cancer cells after γ-irradiation (2 Gray) in the absence or presence (1 μg/ml) of RANKL. Data are representative of at least 3 experiments. Apoptotic cells with a DNA content <2n appear in the sub-G1 region. Percent of cells in sub-G1 (M1), G1-phase (M2), S/G2/M-phase (M3) as well as polyploid cells with a DNA content >4n are given for the indicated time points.
(§2) a,b, FACS analysis of a, mammary epithelial cells and b, SKBR3 human breast cancer cells incubated with the genotoxic agent doxorubicin (Dox, 1 μM) in the presence (1 μg/ml) or absence of RANKL. Data are representative of at least 3 experiments. Percent of cells in sub-G1 (M1), G1-phase (M2), S/G2/M-phase (M3) as well as polyploid cells with a DNA content >4n are given for 24 and 36 hours after doxorubicin treatment. c, mRNA expression of pro-apoptotic genes Bim, Puma, and Noxa 6 hours after γ-irradiation (2 Gray) in the presence (1 μg/ml) or absence of RANKL stimulation. Data are shown as fold change compared to control (+/−sem). n=3). *P<0.05; **P<0.005 (Student's t-test).
(§3) For measurement of cell cycle arrest and apoptosis primary mouse mammary epithelial cells and SKBR3 human breast cancer cells were seeded at a cell-density of 100000 cells/well in a 6-well plate and allowed to grow for 24 hours. Cells where then treated with doxorubicin (1 μM) or γ-irradiation (2 Gray) in the absence or presence of recombinant RANKL (1 μg/ml). Cell cycle arrest and numbers of dead cells were determined using propidium iodine staining. To determine in vivo mammary gland epithelial cell death, control and RANK^Δmam littermate females were γ-irradiated with a total dose of 5 Gray (Gy). Six hours later, mammary glands were isolated and immunostained for active Caspase 3 (Cell Signaling) indicative of apoptosis.

[2] = test system: SKBR3 human breast cancer cells; assay: DNA damage responses (cell cycle arrest, apoptosis) in SKBR3 cells; assay type: cell-based; settings: RANKL 1 μg/ml
Protocol: as §1, §2, §3

Molecule | MPA-induced proliferation of mammary epithelial cells (mammary epithelial cells; RANKΔmam females, 3 days after MPA implantation) | acini with very low proliferation rates (Ki67) (mammary epithelial cells; RANKΔmam females, day 3 after MPA s.c. implantation) | acini with medium to high proliferation (Ki67) (mammary epithelial cells; control females, day 3 after MPA s.c. implantation) [%] | proliferation of mammary epithelial cells (mammary epithelial cells; wild type, 3 days after MPA implantation) | proliferation of mammary gland epithelial cells (mammary epithelial cells; nulliparous females, 1 day after i.p. injection of RANKL (1 μg)) | γ-irradiation-induced upregulation of proapoptotic Bim, Puma and Noxa mRNA ([1]; 6 hours after γ-irradiation 2 Gray, cell type not stated) | early cell cycle arrest after DNA damage ([1]; doxorubicin 1 μM) | protection from cell death ([1]; doxorubicin 1 μM) | early cell cycle arrest after DNA damage ([1]; γ-irradiation 2 Gray) | induction of γH2AX and p53, activation of Chk1 (DNA damage response markers) ([1]; γ-irradiation 2 Gray) | protection from cell death ([1]; γ-irradiation 2 Gray) | early cell cycle arrest after DNA damage ([2]; doxorubicin 1 μM) | protection from cell death ([2]; doxorubicin 1 μM) | early cell cycle arrest after DNA damage ([2]; γ-irradiation 2 Gray) | protection from cell death ([2]; γ-irradiation 2 Gray)
CC(=O)O[C@]1(C(C)=O)CC[C@H]2[C@@H]3C[C@H](C)C4=CC(=O)CC[C@]4(C)[C@H]3CC[C@@]21C [MPA, medroxyprogesterone acetate] | significantly reduced | more than 60% | ~80 | triggers massive proliferation |  |  |  |  |  |  |  |  |  |  | 
B1 |  |  |  |  | triggered proliferation of mammary gland epithelial cells via RANK | did not occur in the presence of RANKL | did not alter the early cell cycle arrest | marked protection from cell death | did not alter the early cell cycle arrest | did not alter induction of γH2AX and p53 or activation of Chk1 | marked protection from cell death | did not alter the early cell cycle arrest | marked protection from cell death | did not alter the early cell cycle arrest | marked protection from cell death
